Data taken from US20200181634A1 (MENDEL BIOTECHNOLOGY, published 2020).

Molecular target: T1, SALT TOLERANCE HOMOLOG2 (STH2) (Arabidopsis thaliana, UniProt Q9LQZ7 1-331, limits assumed)
T1 construct: also called G1482
T1 sequence: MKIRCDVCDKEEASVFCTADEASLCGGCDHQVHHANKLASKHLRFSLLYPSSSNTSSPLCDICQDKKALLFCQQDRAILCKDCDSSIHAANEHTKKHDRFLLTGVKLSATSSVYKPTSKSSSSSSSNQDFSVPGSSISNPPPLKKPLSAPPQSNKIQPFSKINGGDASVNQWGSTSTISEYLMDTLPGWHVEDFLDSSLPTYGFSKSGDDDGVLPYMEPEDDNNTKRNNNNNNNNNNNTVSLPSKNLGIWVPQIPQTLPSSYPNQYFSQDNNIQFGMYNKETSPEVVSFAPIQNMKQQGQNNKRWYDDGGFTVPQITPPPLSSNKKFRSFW
Test: in vitro and protoplast based studies (methods not described)

B1: G1988 (other)
chain: MVSFCELCGAEADLHCAADSAFLCRSCDAKFHASNFLFARHFRRVICPNCKSLTQNFVSGPLLPWPPRTTCCSESSSSSCCSSLDCVSSSELSSTTRDVNRARGRENRVNAKAVAVTVADGIFVNWCGKLGLNRDLTNAVVSYASLALAVETRPRATKRVFLAAAFWFGVKNTTTWQNLKKVEDVTGVSAGMIRAVESKLARAMTQQLRRWRVDSEEGWAENDNV
notes: also called B-box zinc finger transcription factor G1988
B1: binds.
